Assay results as given in article PMC3440371, “Non-Covalent Interaction between Polyubiquitin and GTP Cyclohydrolase 1 Dictates Its Degradation” (PLoS ONE, 2012).

Biological target: T1, polyubiquitin chains, endogenous in HEK293 cells (human (endogenous in HEK293), UniProt P0CG48 1-76)
T1 construct: ubiquitin (76 amino acids), cut product of the polyubiquitin precursor, joined into endogenous polyubiquitin chains; Precipitated or detected with a polyclonal ubiquitin antibody; seen as smeared bands; source: endogenous, HEK293 lysate
Assay: co-IP; lysates of HEK293 cells transfected with FLAG-GCH1 or mutants for 2 days, immunoprecipitated with the ubiquitin antibody and protein A/G beads; blot with FLAG antibody; empty vector as control
Settings: partners not purified

B1: FLAG-GTPCH1 I131L (natural protein, human, UniProt P30793 1-250, looked up)
chain: MEKGPVRAPAEKPRGARCSNGFPERDPPRPGPSRPAEKPPRPEAKSAQPADGWKGERPRSEEDNELNLPNLAAAYSSILSSLGENPQRQGLLKTPWRAASAMQFFTKGYQETISDVLNDAIFDEDHDEMVLVKDIDMFSMCEHHLVPFVGKVHIGYLPNKQVLGLSKLARIVEIYSRRLQVQERLTKQIAVAITEALRPAGVGVVVEATHMCMVMRGVQKMNSKTVTSTMLGVFREDPKTREEFLTLIRS
notes: GTP cyclohydrolase 1 (GTPCH1), human, full-length GCH1 cDNA with the point mutation I131L; also called FLAG-GCH1 I131L; source: HEK293, transfected (pCI-neo), in lysate; not shown: FLAG, C-terminal, kept
fold change of ubiquitin binding against wild-type FLAG-GTPCH1: ~4.5 fold
